± gives the uncertainty stated by the source.
Experiment: self-splicing fitness, log relative to wild type (ln ratio); higher = more splicing; Tetrahymena group I intron in knt gene, E. coli kanamycin selection, DiMSum; sequences stand for … in CUCUCU…GGAGGGAAAAGUUAUCAGGCAUGCACCUGGUAGCUAGUCUUUAAACCAAUAGAUUGCAUCGGUUUAAAAGGCAAGACCGUCAAAUUGCGGGAAAGGGGUCAACAGCCGUUCAGUACCAAGUCUCAGGGGAAACUUUGAGAUGGCCUUGCAAAGGGUAUGGUAAUAAGCUGACGGACAUGGUCCUAACCACGCAGCCAAGUCCUAAGUCAACAGAUCUUCUGUUGAUAUGGAUGCAGUUCACAGACUAAAUGUCGGUCGGGGAAGAUGUAUUCUUCUCAUAAGAUAUAGUCGGACCUCUCCUUAAUGGGAGCUAGCGGAUGAAGUGAUGCAACACUGGAGCCGCUGGGAACUAAUUUGUAUGCGAAAGUAUAUUGAUUAGUUUUGGAGUACUCGUGGUCG
Procedure, shortened: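 DiMSum derived fitness as the error-weighted combination of fold changes across replicates, kanamycin versus no kanamycin, normalised to wild type. E. coli BL21(DE3) held the library, which randomised all eight P1ex-region intron nucleotides within the knt kanamycin-resistance gene on pET-22b(+). Six replicate transformations grew overnight at 37°C or 30°C on LB agar with or without 25 μg/mL kanamycin, also containing 100 μg/mL carbenicillin, 50 μM IPTG and 0.2% rhamnose, and pooled colonies were amplicon-sequenced on an Illumina HiSeq 2500.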

Sequence | self-splicing fitness (ln) (30 °C) | self-splicing fitness (ln) (37 °C)
AGCGAGCAAUAUUACGCGAG | -1.35 ± 0.22 | -3.05 ± 0.4
AGCGAGCAAUAUUACGCGGA | -3.21 ± 0.21 | -2.45 ± 0.19
AGCGAGCAAUAUUACGCGUG | -1.48 ± 0.098 | -1.65 ± 0.13
AGCGAGCAAUAUUACGGGAU | -3.92 ± 0.28 | -2.76 ± 0.27
AGCGAGCAAUAUUACGGGUA | -2.6 ± 0.21 | -0.993 ± 0.18
AGCGAGCAAUAUUACGGUAG | – | -1.73 ± 0.22
AGCGAGCAAUAUUACGUAGC | -2.83 ± 0.26 | -0.813 ± 0.27
AGCGAGCAAUAUUACGUAGG | -3.4 ± 0.35 | -2.17 ± 0.22
AGCGAGCAAUAUUACGUAUA | -3.86 ± 0.37 | -2.18 ± 0.29
AGCGAGCAAUAUUACGUCAG | -4.3 ± 0.36 | -2.58 ± 0.29
AGCGAGCAAUAUUACGUCCA | -2.59 ± 0.15 | -1.1 ± 0.15
AGCGAGCAAUAUUACGUCGU | -3.82 ± 0.43 | -2.18 ± 0.36
AGCGAGCAAUAUUACGUCUA | -1.92 ± 0.13 | -2 ± 0.11
AGCGAGCAAUAUUACGUCUU | -2.73 ± 0.16 | -2.08 ± 0.18
AGCGAGCAAUAUUACGUUUC | -4.07 ± 0.21 | -2.77 ± 0.18
AGCUAGCAAUAUUACGAAAC | – | -1.95 ± 0.43
AGCUAGCAAUAUUACGAAAU | -2.4 ± 0.15 | -1.83 ± 0.2
AGCUAGCAAUAUUACGACUU | -0.59 ± 0.11 | -0.0618 ± 0.12
AGCUAGCAAUAUUACGAUCG | -1.81 ± 0.16 | -0.102 ± 0.18
AGCUAGCAAUAUUACGAUGG | -3.87 ± 0.27 | -2.05 ± 0.28
AGCUAGCAAUAUUACGCACG | -0.605 ± 0.16 | -0.0907 ± 0.18
AGCUAGCAAUAUUACGCAUA | -2.4 ± 0.12 | -1.22 ± 0.14
AGCUAGCAAUAUUACGCAUU | -3 ± 0.19 | -1.48 ± 0.14
AGCUAGCAAUAUUACGCCCG | – | -0.486 ± 0.32
AGCUAGCAAUAUUACGCGUA | -3.08 ± 0.26 | -0.709 ± 0.18

Sequence | self-splicing fitness (ln) (30 °C) | self-splicing fitness (ln) (37 °C)
AGCUAGCAAUAUUACGGGAA | -3.13 ± 0.28 | -1.67 ± 0.22
AGCUAGCAAUAUUACGGGCG | -0.507 ± 0.098 | -0.799 ± 0.15
AGCUAGCAAUAUUACGGUGA | -1.81 ± 0.2 | -0.51 ± 0.2
AGCUAGCAAUAUUACGGUGU | -2.56 ± 0.11 | -1.22 ± 0.11
AGCUAGCAAUAUUACGUAUA | -2.28 ± 0.15 | -2.12 ± 0.23
AGCUAGCAAUAUUACGUCCA | -1.52 ± 0.12 | -0.378 ± 0.11
AGCUAGCAAUAUUACGUCUG | -1.88 ± 0.097 | -1.56 ± 0.13
AGCUAGCAAUAUUACGUGGC | – | -2.27 ± 0.26
AGCUAGCAAUAUUACGUUUG | -4.09 ± 0.24 | -0.747 ± 0.15
AGGAAGCAAUAUUACGACAA | -1.66 ± 0.12 | -1.49 ± 0.14
AGGAAGCAAUAUUACGACGU | 0.0515 ± 0.072 | 0.213 ± 0.076
AGGAAGCAAUAUUACGAGUU | -3.11 ± 0.12 | -1.03 ± 0.11
AGGAAGCAAUAUUACGAUAG | -3.02 ± 0.28 | -1.55 ± 0.38
AGGAAGCAAUAUUACGCAAG | -3.11 ± 0.22 | -1.45 ± 0.13
AGGAAGCAAUAUUACGCAAU | -2.58 ± 0.25 | -2 ± 0.21
AGGAAGCAAUAUUACGCAGC | -3.55 ± 0.33 | -1.47 ± 0.31
AGGAAGCAAUAUUACGCAGG | -3.16 ± 0.25 | -2.21 ± 0.3
AGGAAGCAAUAUUACGCCGG | -0.87 ± 0.17 | -0.612 ± 0.23
AGGAAGCAAUAUUACGCCUC | -2.44 ± 0.44 | -0.418 ± 0.46
AGGAAGCAAUAUUACGCCUG | -1.15 ± 0.14 | 0.257 ± 0.17
AGGAAGCAAUAUUACGCGAU | -3.28 ± 0.28 | -2.11 ± 0.25
AGGAAGCAAUAUUACGCGCU | -1.01 ± 0.13 | -0.788 ± 0.17
AGGAAGCAAUAUUACGCUCC | -1.87 ± 0.31 | –
AGGAAGCAAUAUUACGGCAG | -2.3 ± 0.31 | -0.552 ± 0.32

From the supplement of paper PMC7877785
